Results published in the supplement of paper PMC10567573.

B1: CAMK2B (parent)
chain: YQQIKAGAYDFPSPEWDTVTPEAK

Variants of: B1
Test: protein stability index of a GFP-peptide fusion (GPS, HEK-293T) (PSI 1-6); higher = more stable
Conditions: c terminus: a fixed tail appended
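Note: lentivirally expressed fusions sorted by FACS into six bins by GFP to DsRed ratio, PSI derived from sequencing read proportions per bin multiplied by bin number.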

Variant	protein stability index
YQQIKAGAYDFPSPEWDTVTPRAK	2.91
YQQIKAGAYDFPSPEWDTVTPKAK	2.93
YQQIKAGAYDFPSPEWDTVTPPAK	2.93
YQQIKAGAYDFPSPEWDTVTPQAK	2.67
YQQIKAGAYDFPSPEWDTVTPNAK	3.41
YQQIKAGAYDFPSPEWDTVTPIAK	3.05
YQQIKAGAYDFPSPEWDTVTPTAK	3.05
YQQIKAGAYDFPSPEWDTVTPSAK	2.97
YQQIKAGAYDFPSPEWDTVTPFAK	2.3
YQQIKAGAYDFPSPEWDTVTPDAK	3.89
YQQIKAGAYDFPSPEWDTVTPCAK	2.82
YQQIKAGAYDFPSPEWDTVTPLAK	2.98
YQQIKAGAYDFPSPEWDTVTPYAK	2.46
YQQIKAGAYDFPSPEWDTVTPMAK	2.63
YQQIKAGAYDFPSPEWDTVTPAAK	2.9
YQQIKAGAYDFPSPEWDTVTPVAK	2.82
YQQIKAGAYDFPSPEWDTVTPWAK	2.08
YQQIKAGAYDFPSPEWDTVTPHAK	2.98
YQQIKAGAYDFPSPEWDTVTPGAK	3.27
YQQIKAGAYDFPWPEWDTVTPEAK	2.8
YQQIKAGAYDFPTPEWDTVTPEAK	3.69
YQQIKAGAYDFPRPEWDTVTPEAK	3.29
YQQIKAGAYDFPVPEWDTVTPEAK	3.18
YQQIKAGAYDFPQPEWDTVTPEAK	2.9

Variant	protein stability index
YQQIKAGAYDFPYPEWDTVTPEAK	3.6
YQQIKAGAYDFPSPEWDTVTPENK	3.97
YQQIKAGAYDFPSPEWDTVTPEIK	3.28
YQQIKAGAYDFPSPEWDTVTPEEK	4.05
YQQIKAGAYDFPSPEWDTVTPEKK	3.82
YQQIKAGAYDFPSPEWDTVTPECK	2.98
YQQIKAGAYDFPSPEWDTVTPEFK	3.28
YQQIKAGAYDFPSPEWDTVTPEMK	3.28
YQQIKAGAYDFPSPEWDTVTPELK	2.81
YQQIKAGAYDFPSPEWDTVTPEDK	4.36
YQQIKAGAYDFPSPEWDTVTPEHK	3.92
YQQIKAGAYDFPSPEWDTVTPEGK	3.94
YQQIKAGAYDFPSAEWDTVTPEAK	3.96
YQQIKAGAYDFPSGEWDTVTPEAK	4.03
YQQIKAGAYDFPSFEWDTVTPEAK	2.67
YQQIKAGAYDFPSMEWDTVTPEAK	3.55
YQQIKAGAYDFPSLEWDTVTPEAK	3.17
YQQIKAGAYDFPSSEWDTVTPEAK	3.71
YQQIKAGAYDFPSIEWDTVTPEAK	3.4
YQQIKAGAYDFPSNEWDTVTPEAK	3.88
YQQIKAGAYDFPSTEWDTVTPEAK	3.82
YQQIKAGAYDFPSVEWDTVTPEAK	3.39
YQQIKAGAYDFPSEEWDTVTPEAK	4.47
YQQIKAGAYDFPSQEWDTVTPEAK	3.87

Variant	protein stability index
YQQIKAGAYDFPSREWDTVTPEAK	3.37
YQQIKAGAYDFPSWEWDTVTPEAK	2.57
YQQIKAGAYDFPSHEWDTVTPEAK	3.65
YQQIKAGAYDFPSYEWDTVTPEAK	2.89
YQQIKAGAYDFPSCEWDTVTPEAK	3.45
YQQIKAGAYDFPSKEWDTVTPEAK	3.85
YQQIKAGAYDFPSDEWDTVTPEAK	4.42
YQQIKAGAYDFPSPCWDTVTPEAK	2.42
YQQIKAGAYDFPSPVWDTVTPEAK	2.55
YQQIKAGAYDFPSPAWDTVTPEAK	2.93
YQQIKAGAYDFPSPLWDTVTPEAK	2.52
YQQIKAGAYDFPSPKWDTVTPEAK	2.88
YQQIKAGAYDFPSPNWDTVTPEAK	3.41
YQQIKAGAYDFPSPFWDTVTPEAK	2.14
YQQIKAGAYDFPSPRWDTVTPEAK	2.88
YQQIKAGAYDFPSPGWDTVTPEAK	2.72
YQQIKAGAYDFPSPQWDTVTPEAK	3.44
YQQIKAGAYDFPSPWWDTVTPEAK	2.21
YQQIKAGAYDFPSPHWDTVTPEAK	2.91
YQQIKAGAYDFPSPTWDTVTPEAK	2.67
YQQIKAGAYDFPSPYWDTVTPEAK	1.99
YQQIKAGAYDFPSPPWDTVTPEAK	2.77
YQQIKAGAYDFPSPSWDTVTPEAK	3.39
YQQIKAGAYDFPSPMWDTVTPEAK	2.77

Variant	protein stability index
YQQIKAGAYDFPSPIWDTVTPEAK	2.53
YQQIKAGAYDFPSPDWDTVTPEAK	3.86
YQQIKAGAYDFPSPEWLTVTPEAK	2.51
YQQIKAGAYDFPSPEWPTVTPEAK	3.27
YQQIKAGAYDFPSPEWWTVTPEAK	2
YQQIKAGAYDFPSPEWQTVTPEAK	3.17
YQQIKAGAYDFPSPEWVTVTPEAK	2.3
YQQIKAGAYDFPSPEWYTVTPEAK	2.88
YQQIKAGAYDFPSPEWNTVTPEAK	3.15
YQQIKAGAYDFPSPEWATVTPEAK	3.25
YQQIKAGAYDFPSPEWKTVTPEAK	2.69
YQQIKAGAYDFPSPEWTTVTPEAK	2.84
YQQIKAGAYDFPSPEWITVTPEAK	2.76
YQQIKAGAYDFPSPEWRTVTPEAK	2.57
YQQIKAGAYDFPSPEWSTVTPEAK	2.77
YQQIKAGAYDFPSPEWFTVTPEAK	2.07
YQQIKAGAYDFPSPEWHTVTPEAK	2.85
YQQIKAGAYDFPSPEWMTVTPEAK	2.6
YQQIKAGAYDFPSPEWCTVTPEAK	2.34
YQQIKAGAYDFPSPEWETVTPEAK	4.15
YQQIKAGAYDFPSPEWGTVTPEAK	2.69
YQQIKAGAYDFPSPEWDTVTVEAK	3.42
YQQIKAGAYDFPSPEWDTVTCEAK	3.29
YQQIKAGAYDFPSPEWDTVTLEAK	3.28

Variant	protein stability index
YQQIKAGAYDFPSPEWDTVTTEAK	3.6
YQQIKAGAYDFPSPEWDTVTAEAK	3.44
YQQIKAGAYDFPSPEWDTVTKEAK	3.76
YQQIKAGAYDFPSPEWDTVTWEAK	2.53
YQQIKAGAYDFPSPEWDTVTDEAK	4.05
YQQIKAGAYDFPSPEWDTVTQEAK	3.91
YQQIKAGAYDFPSPEWDTVTHEAK	3.42
YQQIKAGAYDFPSPEWDTVTFEAK	2.78
YQQIKAGAYDFPSPEWDTVTSEAK	3.62
YQQIKAGAYDFPSPEWDTVTGEAK	3.65
YQQIKAGAYDFPSPEWDTVTEEAK	4.3
YQQIKAGAYDFPSPEWDTVTYEAK	3.08
YQQIKAGAYDFPSPEWDTVTREAK	3.2
YQQIKAGAYDFPSPEWDTVTIEAK	3
YQQIKAGAYDFPSPEWDTVTNEAK	3.78
YQQIKAGAYDFPSPEWDTVTMEAK	3.31
YQQIKAGAYDFPSPEWDEVTPEAK	4.27
YQQIKAGAYDFPSPEWDMVTPEAK	3.24
YQQIKAGAYDFPSPEWDVVTPEAK	3.1
YQQIKAGAYDFPSPEWDFVTPEAK	3.09
YQQIKAGAYDFPSPEWDLVTPEAK	3.35
YQQIKAGAYDFPSPEWDPVTPEAK	3.82
YQQIKAGAYDFPSPEWDWVTPEAK	1.85
YQQIKAGAYDFPSPEWDAVTPEAK	3.69

Variant	protein stability index
YQQIKAGAYDFPSPEWDCVTPEAK	3.37
YQQIKAGAYDFPSPEWDNVTPEAK	3.69
YQQIKAGAYDFPSPEWDGVTPEAK	3.56
YQQIKAGAYDFPSPEWDYVTPEAK	2.79
YQQIKAGAYDFPSPEWDSVTPEAK	3.88
YQQIKAGAYDFPSPEWDQVTPEAK	4.03
YQQIKAGAYDFPSPEWDDVTPEAK	4.25
YQQIKAGAYDFPSPEWDIVTPEAK	3.06
YQQIKAGAYDFPSPEWDHVTPEAK	3.63
YQQIKAGAYDFPSPEWDKVTPEAK	3.87
YQQIKAGAYDFPSPEWDRVTPEAK	3.33
YQQIKAGAYDFPSPEWDTNTPEAK	3.97
YQQIKAGAYDFPSPEWDTPTPEAK	3.69
YQQIKAGAYDFPSPEWDTQTPEAK	4.01
YQQIKAGAYDFPSPEWDTDTPEAK	4.23
YQQIKAGAYDFPSPEWDTITPEAK	3.79
YQQIKAGAYDFPSPEWDTFTPEAK	1.97
YQQIKAGAYDFPSPEWDTATPEAK	3.48
YQQIKAGAYDFPSPEWDTSTPEAK	3.59
YQQIKAGAYDFPSPEWDTKTPEAK	3.66
YQQIKAGAYDFPSPEWDTYTPEAK	2.16
YQQIKAGAYDFPSPEWDTTTPEAK	3.96
YQQIKAGAYDFPSPEWDTMTPEAK	3.95
YQQIKAGAYDFPSPEWDTHTPEAK	4.01

Variant	protein stability index
YQQIKAGAYDFPSPEWDTCTPEAK	3.82
YQQIKAGAYDFPSPEWDTRTPEAK	2.99
YQQIKAGAYDFPSPEWDTETPEAK	3.8
YQQIKAGAYDFPSPEWDTLTPEAK	3.53
YQQIKAGAYDFPSPEWDTGTPEAK	3.92
YQQIKAGAYDFPSPEWDTWTPEAK	2.79
YQQIKAGAYDFPSPENDTVTPEAK	4.55
YQQIKAGAYDFPSPEVDTVTPEAK	4.2
YQQIKAGAYDFPSPESDTVTPEAK	4.58
YQQIKAGAYDFPSPERDTVTPEAK	3.54
YQQIKAGAYDFPSPEHDTVTPEAK	4.35
YQQIKAGAYDFPSPEADTVTPEAK	4.07
YQQIKAGAYDFPSPETDTVTPEAK	4.39
YQQIKAGAYDFPSPELDTVTPEAK	4.36
YQQIKAGAYDFPSPEEDTVTPEAK	4.46
YQQIKAGAYDFPSPEKDTVTPEAK	3.45
YQQIKAGAYDFPSPEPDTVTPEAK	4.64
YQQIKAGAYDFPSPEDDTVTPEAK	4.79
YQQIKAGAYDFPSPEQDTVTPEAK	4.28
YQQIKAGAYDFPSPEFDTVTPEAK	4.16
YQQIKAGAYDFPSPEIDTVTPEAK	4.2
YQQIKAGAYDFPSPEGDTVTPEAK	4.35
YQQIKAGAYDFPSPECDTVTPEAK	4.18
YQQIKAGAYDFPSPEMDTVTPEAK	4.31

Variant	protein stability index
YQQIKAGAYDFPSPEYDTVTPEAK	3.53
YQQIKAGAYDFPSPEWDTVKPEAK	3.41
YQQIKAGAYDFPSPEWDTVGPEAK	3.7
YQQIKAGAYDFPSPEWDTVCPEAK	3.51
YQQIKAGAYDFPSPEWDTVNPEAK	3.91
YQQIKAGAYDFPSPEWDTVMPEAK	3.16
YQQIKAGAYDFPSPEWDTVVPEAK	3.66
YQQIKAGAYDFPSPEWDTVDPEAK	4.31
YQQIKAGAYDFPSPEWDTVRPEAK	3.47
YQQIKAGAYDFPSPEWDTVEPEAK	3.93
YQQIKAGAYDFPSPEWDTVWPEAK	2.46
YQQIKAGAYDFPSPEWDTVPPEAK	3.18
YQQIKAGAYDFPSPEWDTVYPEAK	3.06
YQQIKAGAYDFPSPEWDTVSPEAK	3.74
YQQIKAGAYDFPSPEWDTVAPEAK	3.48
YQQIKAGAYDFPSPEWDTVIPEAK	3.16
YQQIKAGAYDFPSPEWDTVLPEAK	3.15
YQQIKAGAYDFPSPEWDTVHPEAK	3.86
YQQIKAGAYDFPSPEWDTVQPEAK	3.34
YQQIKAGAYDFPSPEWDTVFPEAK	3.03
